Measured values as given in US20250002576A1.

Legend:
lysozyme = experiment: non-specific binding ELISA, lysozyme immobilized
[1] = target: human Claudin 18.2 (human) (UniProt P56856); experiment: flow cytometry, antibody dilution series on hCLDN18.2-expressing MiaPaCa-2 cells

normalized signal (fluorescence intensity normalized to trastuzumab) (lysozyme): 0.9 | EC50 [1]: 8.63 nM
Substance: claudiximab (antibody)
